Test results taken from paper PMC2114114.

Target: Rat secretory component (rat (endogenous in rat liver)) (UniProt P15083)
Experiment: co-IP

UniProt P15083, sequence (P15083 19-611): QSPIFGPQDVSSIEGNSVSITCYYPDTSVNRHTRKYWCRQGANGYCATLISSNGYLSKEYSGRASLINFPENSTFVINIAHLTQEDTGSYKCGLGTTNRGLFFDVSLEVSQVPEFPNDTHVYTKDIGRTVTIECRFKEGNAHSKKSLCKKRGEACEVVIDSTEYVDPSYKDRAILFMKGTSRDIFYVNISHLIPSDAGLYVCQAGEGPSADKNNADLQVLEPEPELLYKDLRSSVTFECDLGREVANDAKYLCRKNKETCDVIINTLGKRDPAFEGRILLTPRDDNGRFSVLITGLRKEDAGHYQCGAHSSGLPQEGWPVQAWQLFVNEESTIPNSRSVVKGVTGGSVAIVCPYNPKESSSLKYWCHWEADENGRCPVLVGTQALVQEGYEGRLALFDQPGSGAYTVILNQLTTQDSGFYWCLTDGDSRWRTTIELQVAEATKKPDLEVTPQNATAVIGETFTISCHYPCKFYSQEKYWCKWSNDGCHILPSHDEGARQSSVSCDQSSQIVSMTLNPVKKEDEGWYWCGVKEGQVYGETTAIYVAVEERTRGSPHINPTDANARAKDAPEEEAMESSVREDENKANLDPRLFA

percent bound to anti-rat SC immunoadsorbent: 92.4%
Substance: Human monoclonal polymeric IgA (IgA1 myeloma protein) (from UniProt P01591 23-159) (antibody)
